Legend:
HLA-A2 molecule = molecular target: T1, HLA-A2 molecule (Homo sapiens, UniProt P04439, D140Y/D185E/D98H/E176V/E277Q/G131W/G231S/I119V/I121R/I166T/I218V/L300P/L318F/N151K/N90K/P208A/P217A/Q86G/Q94H/R138H/R169H/T345S); assay: T2 binding assay (HLA-A2 up-regulation on TAP-deficient T2 cells); conditions: for FI0.5: peptide concentration that increases HLA-A2.1 expression by 50% over no peptide
T1 construct: The T2 cell line is deficient for TAP1 and TAP2 transporter proteins and expresses low levels of HLA-A2; endogenous in cells; host or cells: T2 cell line (TAP1/TAP2-deficient)
Experimental: FIG. 1 is a graph showing binding affinity of POTE peptides to HLA-A2 molecules. Peptides were dissolved in DMSO in double-distilled water and different concentrations of peptides were added into the culture of TAP-deficient T2 cells. After overnight culture of the cells in medium supplemented with β2-microglobulin, cells were stained with anti-HLA-A2. HLA-A2 expression was quantified as fluorescence index (FI) according to the following formula: FI=[(mean fluorescence intensity with peptide−mean fluorescence intensity without peptide)/mean fluorescence intensity without peptide]. Background fluorescence without BB7.2 was subtracted for each individual value. To compare the different peptides, FI0.5 (the peptide concentration that increases HLA-A2.1 expression by 50% over no peptide control background) was calculated from the titration curve for each peptide.
FIGS. 2A-2C are graphs showing binding affinity of substituted POTE peptides to HLA-A2 molecules. Shown are binding affinities of the substituted POTE 252 peptides (FIG. 2A), the substituted POTE 553 peptides (FIG. 2B) and the substituted POTE 323 peptides (FIG. 2C) to HLA-A2 molecules. Different concentrations of peptides were added into the culture of TAP-deficient T2 cells. After overnight culture of the cells in medium supplemented with β2-microglobulin, cells were stained with anti-HLA-A2 antibody.
Peptide binding capacity to the HLA-A2 molecule was measured by using the T2 cell line according to a protocol described previously (Peters et al., Bioinformatics 19(14):1765-1772, 2003). T2 cells (3×10^5 cells/well) were incubated overnight in 96-well plates with culture medium (1:1 mixture of RPMI 1640/Eagle-Hank's amino acid containing 2.5% fetal bovine serum, 100 U/ml penicillin, and 100 μg/ml streptomycin) with 10 μg/ml β2-microglobulin (Sigma) and different titrated concentrations of peptides (starting from 100 μM with 2-fold serial dilution) as shown in the figures to determine the concentration giving a 50% increasing in binding. Cells were washed once with cold HBSS containing 0.1% BSA and incubated for 30 minutes at 4° C. with anti-HLA-A2.1 BB7.2 monoclonal antibody (1:40 dilution from hybridoma supernatant). After washing, cells were stained with FITC-labeled goat anti-mouse immunoglobulin (BD, San Jose, Calif.), and the level of HLA expression was measured by flow cytometry. HLA-A2 expression was quantified as fluorescence index (FI) according to the following formula: FI=[(geometric mean fluorescence intensity with peptide-geometric mean fluorescence intensity without peptide)/geometric mean fluorescence intensity without peptide]. Background fluorescence without BB7.2 was subtracted for each individual value. To compare the different peptides, FI0.5, the peptide concentration that increases HLA-A2.1 expression by 50% over no peptide control background, was calculated from the titration curve for each peptide.

[1] = system: IFN-γ secreting spleen cells; assay: ex vivo IFN-γ ELISPOT assay on splenocytes of peptide-immunized AAD mice; format: in vivo; conditions: AAD mice immunized s.c., splenocytes pooled from three mice two weeks after boost
Experimental: FIGS. 3A and 3B are graphs showing immunogenicity of the wild type and enhanced POTE 252 epitopes in AAD mice. AAD mice were immunized subcutaneously with a mixture of peptide and cytokines in adjuvant as described in Example 1. (FIG. 3A) Two weeks after the second boost, splenocytes pooled from three mice were restimulated with splenocytes of naïve AAD mice pulsed with 1.0 μM of each peptide at different effector to target (E/T) ratios. Cells were cultured in anti-mouse IFN-γ antibody coated ELISPOT™ plates. After overnight culture, biotinylated anti-mouse IFN-γ antibodies were added to each well. ELISPOT™ substrates were added to develop the color and spots were counted by an ELISPOT™ reader (AID ELISPOT™ reader system). Figures show numbers of spots per million cells. (FIG. 3B) CTL cross-reactivity on each peptide. Two weeks after the second boost, pooled spleen cells from three mice were restimulated with irradiated splenocytes pulsed with 1.0 μM of peptide for 7 days. In a 4-hour ^51Cr release assay, CIR.AAD cells were pulsed with 1.0 μM of peptide and labeled with ^51Cr. After washing three times, target cells were mixed with different numbers of effector cells and then cultured for 4 hours before harvesting.
FIGS. 4A-4D are graphs showing immunogenicity of the wild type and enhanced POTE 553 epitopes in AAD mice. AAD mice were immunized subcutaneously with a mixture of peptide and cytokines in adjuvant. (FIGS. 4A and 4B) Two weeks after the second boost, splenocytes pooled from three mice were restimulated with splenocytes of naïve AAD mice pulsed with 10 nM to 1.0 μM of each peptide at different E/T ratios. Cells were cultured in anti-mouse IFN-γ antibody coated ELISPOT™ plates. After overnight culture, biotinylated anti-mouse IFN-γ antibodies were added to each well. ELISPOT™ substrates were added to develop color and spots were counted by an ELISPOT™ reader (AID ELISPOT™ reader system). Figures show numbers of spots per million cells. (FIGS. 4C and 4D) CTL cross-reactivity on each peptide. Two weeks after the second boost, pooled spleen cells from three mice were restimulated with irradiated splenocytes pulsed with 1.0 μM of peptide for 7 days. In a 4-hour ^51Cr release assay, CIR.AAD cells were pulsed with 1.0 μM of peptide and labeled with ^51Cr. After washing three times, target cells were mixed with different numbers of effector cells and then cultured for 4 hours before harvesting.
FIGS. 5A and 5B are graphs showing immunogenicity of the POTE 272 epitope in AAD mice. AAD mice were immunized subcutaneously with a mixture of peptide and cytokines in adjuvant. (FIG. 5A) Two weeks after the second boost, splenocytes pooled from three mice were restimulated with splenocytes of naïve AAD mice pulsed with 1.0 μM POTE 272 peptide at different E/T ratios. Cells were cultured in anti-mouse IFN-γ antibody coated ELISPOT™ plates. After overnight culture, biotinylated anti-mouse IFN-γ antibodies were added in each well. ELISPOT™ substrates were added to develop color and spots were counted by an ELISPOT™ reader (AID ELISPOT™ reader system). Figures show numbers of spots per million cells. (FIG. 5B) CTL reactivity on POTE 272 peptide. Two weeks after the second boost, pooled spleen cells from three mice were restimulated with irradiated splenocytes pulsed with 1.0 μM POTE 272 peptide for 7 days. In a 4-hour ^51Cr release assay, CIR.AAD cells were pulsed with 1.0 μM POTE 272 peptide and labeled with ^51Cr. After washing three times, target cells were mixed with different numbers of effector cells and then cultured for 4 hours before harvesting.
FIGS. 6A and 6B are graphs showing immunogenicity of the wild type and enhanced POTE 323 epitopes in AAD mice. AAD mice were immunized subcutaneously with a mixture of peptide and cytokines in adjuvant. (FIG. 6A) Two weeks after the second boost, splenocytes pooled from three mice were restimulated with splenocytes of naïve AAD mice pulsed with 1.0 μM of each peptide at different E/T ratios. […]

Sequence: KLMAKALLL [POTE 252-260, unmodified 9-mer peptide, residues 252-260 of human POTE]
- binding affinity for the HLA-A2 molecule (in words) (HLA-A2 molecule; T2 binding assay): intermediate binders
- FI0.5 (HLA-A2 molecule; substituted peptides and their wild types, Table 2 / FIGS. 2A-2C): 1.5 µM
- FI0.5 (HLA-A2 molecule; wild-type peptides, Table 1 / FIG. 1): ~1.6 µM
- IFN-γ response (ELISPOT spots) on stimulation with the immunizing peptide [1]: induced a significant number of IFN-γ spots
